Source: patent US20150344570A1 (published 2015)

T1: FcγRIIb extracellular domain with C-terminal His tag (human, UniProt P31994 43-217)
T1 construct: extracellular domain; Expressed in FreeStyle293 cells; analyte in the SPR assay; also called FcgRIIb; 2b
T1 sequence (looked up): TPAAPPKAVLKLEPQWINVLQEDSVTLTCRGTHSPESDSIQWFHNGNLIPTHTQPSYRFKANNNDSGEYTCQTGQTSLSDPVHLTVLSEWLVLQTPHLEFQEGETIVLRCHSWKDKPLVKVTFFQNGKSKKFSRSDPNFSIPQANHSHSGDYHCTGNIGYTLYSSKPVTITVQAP

T2: FcγRIIa R (FcγRIIa allotype with Arg at position 131), extracellular domain with C-terminal His tag (human, UniProt P12318 34-217)
T2 construct: extracellular domain; made in FreeStyle293 cells; analyte in the Biacore assay; also called FcγRIIa type R; 2aR
T2 sequence (looked up): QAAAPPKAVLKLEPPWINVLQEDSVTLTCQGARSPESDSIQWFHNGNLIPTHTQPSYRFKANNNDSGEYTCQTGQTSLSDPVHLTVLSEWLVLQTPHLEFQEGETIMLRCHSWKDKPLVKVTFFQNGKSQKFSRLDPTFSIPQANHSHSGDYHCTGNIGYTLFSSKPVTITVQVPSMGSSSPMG

T3: FcγRIIb, extracellular domain with C-terminal His tag (human, UniProt P31994 43-217)
T3 construct: extracellular domain; made in FreeStyle293 cells; analyte in the Biacore assay; also called 2b; FcgRIIb
T3 sequence (looked up): T1 sequence (looked up)

B1: GpH7-A5/GpH7-B3 variant G236_03V/GpL16-k0 (He Ab) (antibody, human IgG1, kappa)
heavy 1: not shown
heavy 2: not shown
light: DIVMTQSPLSLPVTPGEPASISCQASESLVHSNRNTYLHWYLQKPGQSPQLLIYKVSNRFSGVPDRFSGSGSGTDFTLKISRVEAEDVGVYYCSQNTHVPPTFGQGTKVEIERTVAAPSVFIFPPSDEQLKSGTASVVCLLNNFYPREAKVQWKVDNALQSGNSQESVTEQDSKDSTYSLSSTLTLSKADYEKHKVYACEVTHQGLSSPVTKSFNRGEC
notes: He Ab: mutation in one H chain only
B2: GpH7-A5/GpH7-B3 variant L234_14T/GpL16-k0 (He Ab) (antibody, human IgG1, kappa)
heavy 1: not shown
heavy 2: not shown
light: B1 light
notes: as for B1
B3: GpH7-A5/GpH7-B3 variant L235_11K/GpL16-k0 (He Ab) (antibody, human IgG1, kappa)
heavy 1: not shown
heavy 2: not shown
light: B1 light
notes: as for B1
B4: GpH7-A5/GpH7-B3 variant L234_11K/GpL16-k0 (He Ab) (antibody, human IgG1, kappa)
heavy 1: not shown
heavy 2: not shown
light: B1 light
notes: as for B1
B5: GpH7-A5/GpH7-B3 variant L234_01G/GpL16-k0 (He Ab) (antibody, human IgG1, kappa)
heavy 1: not shown
heavy 2: not shown
light: B1 light
notes: as for B1
B6: GpH7-A5/GpH7-B3 variant L235_05P/GpL16-k0 (He Ab) (antibody, human IgG1, kappa)
heavy 1: not shown
heavy 2: not shown
light: B1 light
notes: as for B1
B7: GpH7-A5/GpH7-B3 variant L234_19Q/GpL16-k0 (He Ab) (antibody, human IgG1, kappa)
heavy 1: not shown
heavy 2: not shown
light: B1 light
notes: as for B1
B8: GpH7-A5/GpH7-B3 variant L235_18N/GpL16-k0 (He Ab) (antibody, human IgG1, kappa)
heavy 1: not shown
heavy 2: not shown
light: B1 light
notes: as for B1
B9: GpH7-A5/GpH7-B3 variant L235_19Q/GpL16-k0 (He Ab) (antibody, human IgG1, kappa)
heavy 1: not shown
heavy 2: not shown
light: B1 light
notes: as for B1
B10: GpH7-A5/GpH7-B3 variant L235_06M/GpL16-k0 (He Ab) (antibody, human IgG1, kappa)
heavy 1: not shown
heavy 2: not shown
light: B1 light
notes: as for B1
B11: GpH7-A5/GpH7-B3 variant L235_01G/GpL16-k0 (He Ab) (antibody, human IgG1, kappa)
heavy 1: not shown
heavy 2: not shown
light: B1 light
notes: as for B1
B12: GpH7-A5/GpH7-B3 variant L234_13S/GpL16-k0 (He Ab) (antibody, human IgG1, kappa)
heavy 1: not shown
heavy 2: not shown
light: B1 light
notes: as for B1
B13: GpH7-A5/GpH7-B3 variant G236_04F/GpL16-k0 (He Ab) (antibody, human IgG1, kappa)
heavy 1: not shown
heavy 2: not shown
light: B1 light
notes: as for B1
B14: GpH7-A5/GpH7-B3 variant L234_02A/GpL16-k0 (He Ab) (antibody, human IgG1, kappa)
heavy 1: not shown
heavy 2: not shown
light: B1 light
notes: as for B1
B15: GpH7-A5/GpH7-B3 variant L235_14T/GpL16-k0 (He Ab) (antibody, human IgG1, kappa)
heavy 1: not shown
heavy 2: not shown
light: B1 light
notes: as for B1
B16: GpH7-A5/GpH7-B3 variant L234_06M/GpL16-k0 (He Ab) (antibody, human IgG1, kappa)
heavy 1: not shown
heavy 2: not shown
light: B1 light
notes: as for B1
B17: GpH7-A5/GpH7-B3 variant L235_13S/GpL16-k0 (He Ab) (antibody, human IgG1, kappa)
heavy 1: not shown
heavy 2: not shown
light: B1 light
notes: as for B1
B18: GpH7-A5/GpH7-B3 variant L234_12R/GpL16-k0 (He Ab) (antibody, human IgG1, kappa)
heavy 1: not shown
heavy 2: not shown
light: B1 light
notes: as for B1
B19: GpH7-A5/GpH7-B3 variant L235_02A/GpL16-k0 (He Ab) (antibody, human IgG1, kappa)
heavy 1: not shown
heavy 2: not shown
light: B1 light
notes: as for B1
B20: GpH7-A5/GpH7-B3 variant L234_16H/GpL16-k0 (He Ab) (antibody, human IgG1, kappa)
heavy 1: not shown
heavy 2: not shown
light: B1 light
notes: as for B1
B21: GpH7-A5/GpH7-B3 variant L235_03V/GpL16-k0 (He Ab) (antibody, human IgG1, kappa)
heavy 1: not shown
heavy 2: not shown
light: B1 light
notes: as for B1
B22: GpH7-A5/GpH7-B3 variant L234_05P/GpL16-k0 (He Ab) (antibody, human IgG1, kappa)
heavy 1: not shown
heavy 2: not shown
light: B1 light
notes: as for B1
B23: GpH7-A5/GpH7-B3 variant G236_05P/GpL16-k0 (He Ab) (antibody, human IgG1, kappa)
heavy 1: not shown
heavy 2: not shown
light: B1 light
notes: as for B1
B24: GpH7-A5/GpH7-B3 variant L234_03V/GpL16-k0 (He Ab) (antibody, human IgG1, kappa)
heavy 1: not shown
heavy 2: not shown
light: B1 light
notes: as for B1
B25: GpH7-A5/GpH7-B3 variant L234_07I/GpL16-k0 (He Ab) (antibody, human IgG1, kappa)
heavy 1: not shown
heavy 2: not shown
light: B1 light
notes: as for B1
B26: GpH7-A5/GpH7-B3 variant G236_02A/GpL16-k0 (antibody, human IgG1, kappa)
heavy 1: not shown
heavy 2: not shown
light: B1 light
notes: heterodimerized IgG1, mutation in one H chain only; also called He Ab
B27: GpH7-A5/GpH7-B3 variant G236_03V/GpL16-k0 (antibody, human IgG1, kappa)
heavy 1: not shown
heavy 2: not shown
light: B1 light
notes: as for B26
B28: GpH7-A5/GpH7-B3 variant L235_12R/GpL16-k0 (antibody, human IgG1, kappa)
heavy 1: not shown
heavy 2: not shown
light: B1 light
notes: as for B26

target: T4, FcγRIa extracellular domain with C-terminal His tag (human, UniProt P12314 16-292); experiment: SPR (Biacore), relative binding, HeCon Ab = 100
T4 construct: extracellular domain; Expressed in FreeStyle293 cells; analyte in the SPR assay; also called FcgRI; 1a
T4 sequence (P12314 16-292): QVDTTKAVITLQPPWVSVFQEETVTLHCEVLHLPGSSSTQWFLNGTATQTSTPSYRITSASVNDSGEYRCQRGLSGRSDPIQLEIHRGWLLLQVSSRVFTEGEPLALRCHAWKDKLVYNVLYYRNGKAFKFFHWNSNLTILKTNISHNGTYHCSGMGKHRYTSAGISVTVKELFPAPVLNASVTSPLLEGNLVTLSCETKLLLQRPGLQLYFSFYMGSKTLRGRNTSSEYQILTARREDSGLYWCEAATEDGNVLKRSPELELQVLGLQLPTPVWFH

Binder	He/Con_1a
B1	89.9 % of HeCon Ab (=100)
B2	98.6 % of HeCon Ab (=100)
B3	79.9 % of HeCon Ab (=100)
B4	91.8 % of HeCon Ab (=100)
B5	96.1 % of HeCon Ab (=100)
B6	94.7 % of HeCon Ab (=100)
B7	95.7 % of HeCon Ab (=100)
B8	92.2 % of HeCon Ab (=100)
B9	94 % of HeCon Ab (=100)
B10	98 % of HeCon Ab (=100)
B11	87.2 % of HeCon Ab (=100)
B12	96.9 % of HeCon Ab (=100)
B13	96.4 % of HeCon Ab (=100)
B14	97.5 % of HeCon Ab (=100)
B15	88.7 % of HeCon Ab (=100)
B16	104 % of HeCon Ab (=100)
B17	90.5 % of HeCon Ab (=100)
B18	91.8 % of HeCon Ab (=100)
B19	92.2 % of HeCon Ab (=100)
B20	94 % of HeCon Ab (=100)
B21	94.7 % of HeCon Ab (=100)
B22	99.9 % of HeCon Ab (=100)
B23	77 % of HeCon Ab (=100)
B24	104 % of HeCon Ab (=100)
B25	103 % of HeCon Ab (=100)

target: T1, FcγRIIb extracellular domain with …; experiment: SPR (Biacore), relative binding, HeCon Ab = 100

Binder	He/Con_2b
B1	35.3 % of HeCon Ab (=100)
B2	62.5 % of HeCon Ab (=100)
B3	6.3 % of HeCon Ab (=100)
B4	16.2 % of HeCon Ab (=100)
B5	50.7 % of HeCon Ab (=100)
B6	54.7 % of HeCon Ab (=100)
B7	60.3 % of HeCon Ab (=100)
B8	54.9 % of HeCon Ab (=100)
B9	42.6 % of HeCon Ab (=100)
B10	81 % of HeCon Ab (=100)
B11	35.4 % of HeCon Ab (=100)
B12	59.3 % of HeCon Ab (=100)
B13	39.3 % of HeCon Ab (=100)
B14	64.9 % of HeCon Ab (=100)
B15	46.8 % of HeCon Ab (=100)
B16	78.5 % of HeCon Ab (=100)
B17	48.2 % of HeCon Ab (=100)
B18	18.9 % of HeCon Ab (=100)
B19	63 % of HeCon Ab (=100)
B20	59.4 % of HeCon Ab (=100)
B21	66.4 % of HeCon Ab (=100)
B22	72.9 % of HeCon Ab (=100)
B23	19 % of HeCon Ab (=100)
B24	73.1 % of HeCon Ab (=100)
B25	80.9 % of HeCon Ab (=100)

target: T4, FcγRIa extracellular domain with …; experiment: SPR (Biacore); He/Con_1a divided by He/Con_2b (FcγRIa against FcγRIIb)

Binder	He_1a/2b (Ia/IIb) [ratio]
B1	2.55
B2	1.58
B3	12.7
B4	5.67
B5	1.9
B6	1.73
B7	1.59
B8	1.68
B9	2.21
B10	1.21
B11	2.46
B12	1.63
B13	2.45
B14	1.5
B15	1.9
B16	1.32
B17	1.88
B18	4.86
B19	1.46
B20	1.58
B21	1.43
B22	1.37
B23	4.05
B24	1.43
B25	1.27

target: T2, FcγRIIa R (FcγRIIa allotype with Arg at …); experiment: SPR (Biacore), antibody captured, FcγR analyte; vs GpH7-A5/GpH7-B3/GpL16-k0 = 100
Protocol: (§1) The heterodimerized antibodies He Abs in which one of the H chains was introduced with an alteration were assayed for their binding activities to each activating FcγR and inhibitory FcγR according to the method described in Example 4. […] The activating FcγRs in FIGS. 26, 27, 28, and 29 are FcγRIa, FcγRIIa (R), FcγRIIa (H), and FcγRIIIa, respectively.
(§2) Analysis of interaction between objective antibody and the FcγR was carried out using Biacore T100 (GE Healthcare). HBS-EP+ (GE Healthcare) was used as the running buffer, and the measurement temperature was set to 25° C. Chips produced by immobilizing the antigen peptide by the amine coupling method to a Series S Sencor Chip CM5 (GE Healthcare), or alternatively, chips produced by allowing preliminarily biotinylated antigen peptides to interact with and immobilize onto a Series S Sensor Chip SA (certified) (GE Healthcare) were used. Antibodies of interest were captured onto an antigen peptide-immobilized chip, and allowed to interact to each FcγR diluted with running buffer. To regenerate and repeatedly use the chip, the antibodies captured on the chip were washed off by reacting 10 mM glycine-HCl, pH 1.5.

Binder	He/Con_2aR
B26	146 relative (HeCon Ab = 100)
B27	91.6 relative (HeCon Ab = 100)
B28	16.2 relative (HeCon Ab = 100)

target: T3, FcγRIIb, extracellular domain with …; experiment: as above
Protocol: as §1, §2

Binder	He/Con_2b
B26	96.5 relative (HeCon Ab = 100)
B27	35.3 relative (HeCon Ab = 100)

target: T2, FcγRIIa R (FcγRIIa allotype with Arg at …); experiment: SPR (Biacore); He/Con_2aR divided by He/Con_2b, binding to FcγRIIa R against binding to FcγRIIb
Protocol: as §1, §2

Binder	He_2aR/2b (IIaR/IIb) [ratio]
B26	1.51
B27	2.6
B28	1.69
